Assays:
ADI-67447 [1] = target: T1, ADI-67447; test: SPR Carterra avidity, CHO anti-ID
T1 construct: anti-CD3 antibody made in CHO cells, captured by anti-human Fc
Protocol: (§1) Kinetic analysis was conducted at 25° C. in an HBSTE running buffer system (Carterra Cat #3630) using a Carterra LSA (Carterra USA, Salt Lake City, UT). The sample compartment was maintained at 20° C. for the duration of each experiment.
(§2) For antibody capture experiments, a goat anti-human Fc antibody (Jackson ImmunoResearch) was covalently coupled to an HC30M sensor chip surface via standard amine coupling (1:1 EDC:NHS) and then blocked with ethanolamine (1.0 M, pH 8.5). Covalent coupling steps were performed in 25 mM MES buffer (Carterra, Cat #3625) plus 0.05% Tween20. The anti-CD3 antibodies (100 nM in running buffer) were flowed over discrete regions of interest on the chip surface for 5 minutes. […] Dissociation of the anti-idiotype antibodies was monitored for 300s. Several blank buffer samples were injected over the entire chip surface at the start of each non-regenerative kinetic cycle. The preceding blank buffer injection was used for blank surface subtraction. At the end of each non-regenerative kinetic cycle, all surfaces were regenerated via two 30s injections of 10 mM glycine, pH 1.7.
(§3) In Tables 10A-10C, anti-CD3 antibodies are listed by ADI number or CTL number in the first column. […] CTL-62223 is mosunetuzumab, CTL-62227 is odronextamab, CTL-62228 is glofitamab, and CTL-62240 is ONO-4685. […] “W.B.” means weak binding under the conditions of this assay and thus a KD was unable to be assigned. “N.B.” means no binding under the conditions of this assay.

ADI-26919 = target: T2, ADI-26919; test: SPR Carterra avidity, CHO anti-ID
T2 construct: anti-CD3 antibody made in CHO cells, captured by anti-human Fc
Protocol: as §1, §2, §3

ADI-26920 IgG = target: T3, ADI-26920 IgG; test: SPR Carterra avidity, CHO anti-ID
T3 construct: anti-CD3 IgG
Protocol: as §1, §2, §3

ADI-26924 = target: T4, ADI-26924; test: SPR Carterra avidity, CHO anti-ID
T4 construct: anti-CD3 antibody made in CHO cells, captured by anti-human Fc
Protocol: as §1, §2, §3

ADI-26943 = target: T5, ADI-26943; test: SPR Carterra avidity, CHO anti-ID
T5 construct: anti-CD3 antibody made in CHO cells, captured by anti-human Fc
Protocol: as §1, §2, §3

ADI-76357 = target: T6, ADI-76357; test: SPR Carterra avidity, CHO anti-ID
T6 construct: anti-CD3 antibody made in CHO cells, captured by anti-human Fc
Protocol: as §1, §2, §3

ADI-26906 IgG = target: T7, ADI-26906 IgG; test: SPR Carterra avidity, yeast anti-ID
T7 construct: anti-CD3 IgG
Procedure, shortened: (§4)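 Anti-human Fc capture chip (amine coupled); anti-CD3 IgG 100 nM, 5 min capture; 25° C, HBSTE. Non-regenerative kinetic cycles, anti-ID dissociation 300s; glycine pH 1.7 regeneration. Double-reference subtraction, 1:1 fit.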

ADI-67447 [2] = target: T1, ADI-67447; test: SPR Carterra avidity, yeast anti-ID
Procedure, shortened: as §4

ADI-26916 IgG = target: T8, ADI-26916 IgG; test: SPR Carterra avidity, yeast anti-ID
T8 construct: anti-CD3 IgG
Procedure, shortened: as §4

ADI-74968 = target: T9, ADI-74968; test: SPR Carterra avidity, yeast anti-ID
T9 construct: pH-dependent anti-CD3 antibody made in CHO cells
Procedure, shortened: as §4

ADI-76359 = target: T10, ADI-76359; test: SPR Carterra avidity, yeast anti-ID
T10 construct: anti-CD3 antibody made in CHO cells, captured by anti-human Fc
Procedure, shortened: as §4

CTL-19613 Fab = target: T11, CTL-19613 Fab; test: BLI; tip ADI-34145 IgG, solution anti-CD3 Fab
T11 construct: anti-CD3 Fab by papain digestion of the IgG1
Protocol: ForteBio affinity measurements were performed generally as previously described (Estep et al., MAbs. 2013 5(2):270-8). Briefly, ForteBio affinity measurements were performed by loading antibody IgG or Fabs on-line onto AHC sensors. Sensors were equilibrated off-line in assay buffer for 30 minutes and then monitored on-line for 60 seconds for baseline establishment. For avid binding measurement, sensors with loaded antibodies were exposed to IgG or Fab solutions for 3 minutes, afterwards they were transferred to assay buffer for 3 minutes for off-rate measurement. Kinetics data were fit using a 1:1 binding model in the data analysis software provided by ForteBio to obtain equilibrium dissociation constant (KD=koff/kₒₙ) values. In each column, tip-immobilized antibodies are listed first and solution antibodies second.
CTL-19613 is an IgG1 antibody prepared with anti-CD3 variable domains corresponding with those of clone 12C described in United States Publication Number US 2010/0183615 (e.g., see paragraphs 469-479 and FIG. 25 thereof), which also make up the CD3 binding domain of the bispecific antibody pasotuxizumab. […] In each column, tip-immobilized antibodies are listed first and solution antibodies second.

ADI-70326 = target: T12, ADI-70326; test: SPR Carterra avidity, CHO anti-ID
T12 construct: anti-CD3 antibody made in CHO cells, captured by anti-human Fc
Protocol: as §1, §2, §3

ADI-70327 [3] = target: T13, ADI-70327; test: SPR Carterra avidity, CHO anti-ID
T13 construct: anti-CD3 antibody made in CHO cells, captured by anti-human Fc
Protocol: as §1, §2, §3

ADI-70330 [4] = target: T14, ADI-70330; test: SPR Carterra avidity, CHO anti-ID
T14 construct: anti-CD3 antibody made in CHO cells, captured by anti-human Fc
Protocol: as §1, §2, §3

ADI-26913 IgG = target: T15, ADI-26913 IgG; test: SPR Carterra avidity, CHO anti-ID
T15 construct: anti-CD3 IgG
Protocol: as §1, §2, §3

ADI-48587 = target: T16, ADI-48587; test: SPR Carterra avidity, CHO anti-ID
T16 construct: pH-dependent anti-CD3 antibody made in CHO cells
Protocol: as §1, §2, §3

ADI-74966 [5] = target: T17, ADI-74966; test: SPR Carterra avidity, CHO anti-ID
T17 construct: pH-dependent anti-CD3 antibody made in CHO cells
Protocol: as §1, §2, §3

ADI-76360 = target: T18, ADI-76360; test: SPR Carterra avidity, CHO anti-ID
T18 construct: anti-CD3 antibody made in CHO cells, captured by anti-human Fc
Protocol: as §1, §2, §3

ADI-76362 [6] = target: T19, ADI-76362; test: SPR Carterra avidity, CHO anti-ID
T19 construct: anti-CD3 antibody made in CHO cells, captured by anti-human Fc
Protocol: as §1, §2, §3

ADI-70327 [7] = target: T13, ADI-70327; test: SPR Carterra avidity, yeast anti-ID
Procedure, shortened: as §4

ADI-70330 [8] = target: T14, ADI-70330; test: SPR Carterra avidity, yeast anti-ID
Procedure, shortened: as §4

ADI-67450 = target: T20, ADI-67450; test: SPR Carterra avidity, yeast anti-ID
T20 construct: anti-CD3 antibody made in CHO cells, captured by anti-human Fc
Procedure, shortened: as §4

ADI-26921 IgG = target: T21, ADI-26921 IgG; test: SPR Carterra avidity, yeast anti-ID
T21 construct: anti-CD3 IgG
Procedure, shortened: as §4

ADI-26912 = target: T22, ADI-26912; test: SPR Carterra avidity, yeast anti-ID
T22 construct: anti-CD3 antibody made in CHO cells, captured by anti-human Fc
Procedure, shortened: as §4

ADI-26915 = target: T23, ADI-26915; test: SPR Carterra avidity, yeast anti-ID
T23 construct: anti-CD3 antibody made in CHO cells, captured by anti-human Fc
Procedure, shortened: as §4

ADI-74966 [9] = target: T17, ADI-74966; test: SPR Carterra avidity, yeast anti-ID
Procedure, shortened: as §4

ADI-76361 = target: T24, ADI-76361; test: SPR Carterra avidity, yeast anti-ID
T24 construct: anti-CD3 antibody made in CHO cells, captured by anti-human Fc
Procedure, shortened: as §4

ADI-76362 [10] = target: T19, ADI-76362; test: SPR Carterra avidity, yeast anti-ID
Procedure, shortened: as §4

CTL-62223 = target: T25, CTL-62223; test: SPR Carterra avidity, yeast anti-ID
T25 construct: also called mosunetuzumab
Procedure, shortened: as §4

T14 sequence (VH, as listed by the source limits assumed, chain 1 of 2): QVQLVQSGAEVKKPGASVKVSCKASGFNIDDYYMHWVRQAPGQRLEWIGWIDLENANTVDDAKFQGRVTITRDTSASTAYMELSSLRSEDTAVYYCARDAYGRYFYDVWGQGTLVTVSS
T14 sequence (VL, as listed by the source limits assumed, chain 2 of 2): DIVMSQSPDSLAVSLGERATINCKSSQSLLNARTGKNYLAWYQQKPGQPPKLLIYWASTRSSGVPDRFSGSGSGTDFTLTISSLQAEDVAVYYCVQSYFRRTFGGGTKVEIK
T1 sequence (VH, as listed by the source limits assumed, chain 1 of 2): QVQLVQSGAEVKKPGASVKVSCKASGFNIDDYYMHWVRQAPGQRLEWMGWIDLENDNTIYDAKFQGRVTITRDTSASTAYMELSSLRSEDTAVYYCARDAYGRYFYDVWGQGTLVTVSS
T1 sequence (VL, as listed by the source limits assumed, chain 2 of 2): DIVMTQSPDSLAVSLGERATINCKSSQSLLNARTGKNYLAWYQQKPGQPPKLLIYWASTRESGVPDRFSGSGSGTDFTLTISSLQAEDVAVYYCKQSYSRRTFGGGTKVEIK
T19 sequence (VH, as listed by the source, chain 1 of 2): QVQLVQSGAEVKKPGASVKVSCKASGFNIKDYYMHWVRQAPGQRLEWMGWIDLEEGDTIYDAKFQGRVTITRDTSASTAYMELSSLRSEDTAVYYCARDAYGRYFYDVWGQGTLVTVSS
T19 sequence (VL, as listed by the source, chain 2 of 2): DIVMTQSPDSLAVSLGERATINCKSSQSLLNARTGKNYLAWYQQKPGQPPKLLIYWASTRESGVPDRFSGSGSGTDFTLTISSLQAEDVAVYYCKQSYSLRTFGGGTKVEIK
T13 sequence (VH, as listed by the source limits assumed, chain 1 of 2): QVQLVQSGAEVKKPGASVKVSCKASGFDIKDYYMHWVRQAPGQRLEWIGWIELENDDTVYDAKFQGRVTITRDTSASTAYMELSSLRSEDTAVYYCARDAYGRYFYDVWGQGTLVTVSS
T17 sequence (VH, as listed by the source, chain 1 of 2): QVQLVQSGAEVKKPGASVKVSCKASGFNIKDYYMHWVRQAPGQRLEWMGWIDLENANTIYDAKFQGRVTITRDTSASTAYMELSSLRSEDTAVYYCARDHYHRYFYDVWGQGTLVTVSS
T17 sequence (VL, as listed by the source, chain 2 of 2): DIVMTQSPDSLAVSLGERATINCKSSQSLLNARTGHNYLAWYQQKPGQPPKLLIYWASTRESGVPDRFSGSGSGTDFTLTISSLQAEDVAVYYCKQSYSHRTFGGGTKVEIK
T18 sequence (VH, as listed by the source, chain 1 of 2): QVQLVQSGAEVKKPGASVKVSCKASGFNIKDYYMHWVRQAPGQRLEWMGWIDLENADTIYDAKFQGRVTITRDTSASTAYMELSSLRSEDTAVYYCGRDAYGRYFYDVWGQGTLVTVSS
T20 sequence (VH, as listed by the source limits assumed, chain 1 of 2): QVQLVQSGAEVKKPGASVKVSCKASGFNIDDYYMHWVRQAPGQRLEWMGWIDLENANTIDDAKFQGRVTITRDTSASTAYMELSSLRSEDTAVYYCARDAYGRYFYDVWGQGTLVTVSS
T8 sequence (VH, as listed by the source, chain 1 of 2): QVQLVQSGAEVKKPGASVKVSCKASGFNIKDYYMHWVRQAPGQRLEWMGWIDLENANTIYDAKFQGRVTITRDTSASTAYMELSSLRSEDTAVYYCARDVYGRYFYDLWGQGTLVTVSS
T9 sequence (VH, as listed by the source, chain 1 of 2): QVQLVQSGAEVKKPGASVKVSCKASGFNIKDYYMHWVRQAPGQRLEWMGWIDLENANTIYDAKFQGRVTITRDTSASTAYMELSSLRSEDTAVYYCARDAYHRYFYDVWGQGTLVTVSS
T24 sequence (VH, as listed by the source, chain 1 of 2): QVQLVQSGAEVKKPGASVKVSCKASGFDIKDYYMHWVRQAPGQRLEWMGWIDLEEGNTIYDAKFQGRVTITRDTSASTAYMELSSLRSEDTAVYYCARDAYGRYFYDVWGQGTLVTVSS
T16 sequence (VL, as listed by the source, chain 2 of 2): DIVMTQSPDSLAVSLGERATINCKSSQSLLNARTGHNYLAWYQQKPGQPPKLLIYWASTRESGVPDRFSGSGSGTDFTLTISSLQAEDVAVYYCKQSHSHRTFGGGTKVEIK
T23 sequence (VH, as listed by the source, chain 1 of 2): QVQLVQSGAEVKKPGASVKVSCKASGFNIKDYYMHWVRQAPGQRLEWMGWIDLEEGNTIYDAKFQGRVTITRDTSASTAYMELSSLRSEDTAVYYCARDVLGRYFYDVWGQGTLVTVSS
T12 sequence (VH, as listed by the source limits assumed, chain 1 of 2): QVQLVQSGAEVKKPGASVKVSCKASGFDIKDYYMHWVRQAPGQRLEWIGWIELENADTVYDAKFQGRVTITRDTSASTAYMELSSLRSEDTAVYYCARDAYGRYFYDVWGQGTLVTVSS
T4 sequence (VH, as listed by the source, chain 1 of 2): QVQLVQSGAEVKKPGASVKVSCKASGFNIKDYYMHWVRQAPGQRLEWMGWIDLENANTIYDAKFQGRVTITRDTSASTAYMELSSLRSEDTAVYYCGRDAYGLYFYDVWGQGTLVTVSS
T3 sequence (VH, as listed by the source limits assumed, chain 1 of 2): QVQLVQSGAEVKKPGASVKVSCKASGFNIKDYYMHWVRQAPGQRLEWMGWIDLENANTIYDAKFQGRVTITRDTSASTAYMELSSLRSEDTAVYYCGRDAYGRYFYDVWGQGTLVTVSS
T25 sequence (VH, as listed by the source, chain 1 of 2): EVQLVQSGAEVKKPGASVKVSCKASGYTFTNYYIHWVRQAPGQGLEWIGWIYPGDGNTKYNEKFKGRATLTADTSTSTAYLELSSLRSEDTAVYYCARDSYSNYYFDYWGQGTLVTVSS
T25 sequence (VL, as listed by the source, chain 2 of 2): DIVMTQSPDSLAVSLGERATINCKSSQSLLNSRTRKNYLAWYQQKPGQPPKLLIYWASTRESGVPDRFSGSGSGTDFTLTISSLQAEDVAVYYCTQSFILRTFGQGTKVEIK
T6 sequence (VH, as listed by the source, chain 1 of 2): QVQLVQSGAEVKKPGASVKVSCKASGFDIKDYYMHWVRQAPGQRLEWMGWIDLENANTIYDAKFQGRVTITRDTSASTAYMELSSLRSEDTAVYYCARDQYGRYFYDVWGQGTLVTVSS
T22 sequence (VH, as listed by the source, chain 1 of 2): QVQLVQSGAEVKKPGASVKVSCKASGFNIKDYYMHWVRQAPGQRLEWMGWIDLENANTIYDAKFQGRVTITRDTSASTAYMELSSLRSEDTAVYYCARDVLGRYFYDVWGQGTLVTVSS
T10 sequence (VH, as listed by the source, chain 1 of 2): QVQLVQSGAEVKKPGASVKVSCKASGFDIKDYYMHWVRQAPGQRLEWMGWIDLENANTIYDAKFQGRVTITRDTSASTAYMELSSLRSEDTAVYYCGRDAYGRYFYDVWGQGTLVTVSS
T21 sequence (VH, as listed by the source limits assumed, chain 1 of 2): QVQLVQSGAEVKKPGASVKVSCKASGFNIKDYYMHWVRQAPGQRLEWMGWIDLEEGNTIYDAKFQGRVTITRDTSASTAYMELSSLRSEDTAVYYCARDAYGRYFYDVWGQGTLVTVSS
T15 sequence (VH, as listed by the source limits assumed, chain 1 of 2): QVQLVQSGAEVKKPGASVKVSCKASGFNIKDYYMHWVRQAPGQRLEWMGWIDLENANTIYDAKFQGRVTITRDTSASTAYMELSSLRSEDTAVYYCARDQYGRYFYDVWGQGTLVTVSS
T5 sequence (VH, as listed by the source, chain 1 of 2): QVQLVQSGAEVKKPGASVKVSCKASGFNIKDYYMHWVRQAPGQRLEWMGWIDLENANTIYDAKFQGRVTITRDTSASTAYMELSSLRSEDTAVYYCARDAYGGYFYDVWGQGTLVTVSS
T5 sequence (VL, as listed by the source, chain 2 of 2): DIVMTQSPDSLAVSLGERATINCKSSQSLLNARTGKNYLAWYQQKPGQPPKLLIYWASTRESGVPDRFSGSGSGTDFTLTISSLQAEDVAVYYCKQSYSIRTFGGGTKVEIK
T7 sequence (VH, as listed by the source limits assumed, chain 1 of 2): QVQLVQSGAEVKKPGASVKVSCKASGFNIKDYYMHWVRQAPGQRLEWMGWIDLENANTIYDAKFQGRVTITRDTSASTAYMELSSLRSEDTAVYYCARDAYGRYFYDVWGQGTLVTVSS

B1: ADI-34145 IgG (antibody, V domains shown)
VH: EVQLLESGGGLVQPGGSLRLSCAASGFTFSSYAMSWVRQAPGKGLEWVSTISGSGGSTYYADSVKGRFTISRDNSKNTLYLQMNSLRAEDTAVYYCARLGGRRGSGSSYYYYYGMDVWGQGTTVTVSS
VL: not shown
notes: anti-ID IgG
ADI-67447 [1]
  Kd: 14 nM
ADI-26919
  Kd: 12 nM
ADI-26920 IgG
  Kd: 15 nM
ADI-26924
  Kd: 3.5 nM
ADI-26943
  Kd: 4.2 nM
ADI-76357
  Kd: 5.6 nM
ADI-26906 IgG
  Kd: 14 nM
ADI-67447 [2]
  Kd: 27 nM
ADI-26916 IgG
  Kd: 20 nM
ADI-74968
  Kd: 67 nM
ADI-76359
  Kd: 14 nM
CTL-19613 Fab
  binding result: no binding

B2: ADI-34134 IgG (antibody, V domains shown)
VH: QVQLVQSGAEVKKPGSSVKVSCKASGGTFSSYAISWVRQAPGQGLEWMGGIIPIFGTANYAQKFQGRVTITADESTSTAYMELSSLRSEDTAVYYCARGAPNYYGSGGYDDGWFDPWGQGTLVTVSS
VL: EIVLTQSPGTLSLSPGERATLSCRASQSVSSDYLAWYQQKPGQAPRLLIYGASSRATGIPDRFSGSGSGTDFTLTISRLEPEDFAVYYCQQFGRVPTFGGGTKVEIK
ADI-70326
  Kd: 1.2 nM
ADI-70327 [3]
  Kd: 1.3 nM
ADI-70330 [4]
  Kd: 0.64 nM
ADI-26913 IgG
  Kd: 0.13 nM
ADI-48587
  Kd: 1.3 nM
ADI-74966 [5]
  Kd: 0.39 nM
ADI-76360
  Kd: 0.21 nM
ADI-76362 [6]
  Kd: 0.23 nM
ADI-70327 [7]
  Kd: 14 nM
ADI-70330 [8]
  Kd: 13 nM
ADI-67450
  Kd: 12 nM
ADI-26921 IgG
  Kd: 3.6 nM
ADI-26912
  Kd: 34 nM
ADI-26915
  Kd: 19 nM
ADI-74966 [9]
  Kd: 52 nM
ADI-76361
  Kd: 7.1 nM
ADI-76362 [10]
  Kd: 6.3 nM
CTL-62223
  Kd: 18 nM
